± gives the standard deviation of the averaged measurements.
Assay: total protein half-life in vivo (active degradation + dilution); higher = more stable protein
[1] = E. coli NCM3722 delta-clpP delta-lon delta-hslV, growth: N-lim chemostat, doubling time 6 h
[2] = E. coli NCM3722 delta-clpP, growth: N-lim chemostat, doubling time 6 h
[3] = E. coli NCM3722 delta-hslV, growth: N-lim chemostat, doubling time 6 h
[4] = E. coli NCM3722 delta-lon, growth: N-lim chemostat, doubling time 6 h
[5] = E. coli NCM3722 delta-smpB, growth: N-lim chemostat, doubling time 6 h
[6] = wild type E. coli NCM3722, growth: C-lim chemostat, doubling time 3 h
[7] = wild type E. coli NCM3722, growth: C-lim chemostat, doubling time 6 h
[8] = wild type E. coli NCM3722, growth: C-lim chemostat, doubling time 12 h
[9] = wild type E. coli NCM3722, growth: N-lim chemostat, doubling time 6 h
[10] = wild type E. coli NCM3722, growth: N-lim chemostat, doubling time 12 h
[11] = wild type E. coli NCM3722, growth: P-lim chemostat, doubling time 6 h
[12] = wild type E. coli NCM3722, growth: P-lim chemostat, doubling time 12 h

**Q.** Which “total protein half-life in vivo” value [1] does the source give for “MIERGKFRSLTLINWNGFFARTFDLDELVTTLSGGNGAGKSTTMAAFVTALIPDLTLLHFRNTTEAGATSGSRDKGLHGKLKAGVCYSMLDTINSRHQRVVVGVRLQQVAGRDRKVDIKPFAIQGLPMSVQPTQLVTETLNERQARVLPLNELKDKLEAMEGVQFKQFNSITDYHSLMFDLGIIARRLRSASDRSKFYRLIEASLYGGISSAITRSLRDYLLPENSGVRKAFQDMEAALRENRMTLEAIRVTQSDRDLFKHLISEATNYVAADYMRHANERRVHLDKALEFRRELHTSRQQLAAEQYKHVDMARELAEHNGAEGDLEADYQAASDHLNLVQTALRQQEKIERYEADLDELQIRLEEQNEVVAEAIERQQENEARAEAAELEVDELKSQLADYQQALDVQQTRAIQYNQAIAALNRAKELCHLPDLTADCAAEWLETFQAKELEATEKMLSLEQKMSMAQTAHSQFEQAYQLVVAINGPLARNEAWDVARELLREGVDQRHLAEQVQPLRMRLSELEQRLREQQEAERLLADFCKRQGKNFDIDELEALHQELEARIASLSDSVSNAREERMALRQEQEQLQSRIQSLMQRAPVWLAAQNSLNQLSEQCGEEFTSSQDVTEYLQQLLEREREAIVERDEVGARKNAVDEEIERLSQPGGSEDQRLNALAERFGGVLLSEIYDDVSLEDAPYFSALYGPSRHAIVVPDLSQVTEHLEGLTDCPEDLYLIEGDPQSFDDSVFSVDELEKAVVVKIADRQWRYSRFPEVPLFGRAARESRIESLHAEREVLSERFATLSFDVQKTQRLHQAFSRFIGSHLAVAFESDPEAEIRQLNSRRVELERALSNHENDNQQQRIQFEQAKEGVTALNRILPRLNLLADDSLADRVDEIRERLDEAQEAARFVQQFGNQLAKLEPIVSVLQSDPEQFEQLKEDYAYSQQMQRDARQQAFALTEVVQRRAHFSYSDSAEMLSGNSDLNEKLRERLEQAEAERTRAREALRGHAAQLSQYNQVLASLKSSYDTKKELLNDLQRELQDIGVRADSGAEERARIRRDELHAQLSNNRSRRNQLEKALTFCEAEMDNLTRKLRKLERDYFEMREQVVTAKAGWCAVMRMVKDNGVERRLHRRELAYLSADDLRSMSDKALGALRLAVADNEHLRDVLRMSEDPKRPERKIQFFVAVYQHLRERIRQDIIRTDDPVEAIEQMEIELSRLTEELTSREQKLAISSRSVANIIRKTIQREQNRIRMLNQGLQNVSFGQVNSVRLNVNVRETHAMLLDVLSEQHEQHQDLFNSNRLTFSEALAKLYQRLNPQIDMGQRTPQTIGEELLDYRNYLEMEVEVNRGSDGWLRAESGALSTGEAIGTGMSILVMVVQSWEDESRRLRGKDISPCRLLFLDEAARLDARSIATLFELCERLQMQLIIAAPENISPEKGTTYKLVRKVFQNTEHVHVVGLRGFAPQLPETLPGTDEAPSQAS” here?
**A.** 6.61 ± 0.52 h

**Q.** And the “total protein half-life in vivo” value [2]?
**A.** 6.45 ± 0.38 h

**Q.** What about the “total protein half-life in vivo” value [3] of the same sequence?
**A.** 4.36 ± 0.13 h

**Q.** What about the “total protein half-life in vivo” value [4] of the same sequence?
**A.** 4.16 ± 0.34 h

**Q.** And the “total protein half-life in vivo” value [5]?
**A.** 4.2 ± 0.079 h

**Q.** What about the “total protein half-life in vivo” value [6] of the same sequence?
**A.** 2.91 ± 0.16 h

**Q.** What about the “total protein half-life in vivo” value [7] of the same sequence?
**A.** 5.16 ± 0.064 h

**Q.** What about the “total protein half-life in vivo” value [8] of the same sequence?
**A.** 8.24 ± 0.095 h

**Q.** And the “total protein half-life in vivo” value [9]?
**A.** 4.374 ± 0.017 h

**Q.** And the “total protein half-life in vivo” value [10]?
**A.** 5.78 ± 0.3 h

**Q.** What about the “total protein half-life in vivo” value [11] of the same sequence?
**A.** 4.74 ± 0.084 h

**Q.** What about the “total protein half-life in vivo” value [12] of the same sequence?
**A.** 6.65 ± 0.25 h

**Q.** Which “total protein half-life in vivo” value [1] does the source give for “MQYHRIPHSSLEVSTLGLGTMTFGEQNSEADAHAQLDYAVAQGINLIDVAEMYPVPPRPETQGLTETYVGNWLAKHGSREKLIIASKVSGPSRNNDKGIRPDQALDRKNIREALHDSLKRLQTDYLDLYQVHWPQRPTNCFGKLGYSWTDSAPAVSLLDTLDALAEYQRAGKIRYIGVSNETAFGVMRYLHLADKHDLPRIVTIQNPYSLLNRSFEVGLAEVSQYEGVELLAYSCLGFGTLTGKYLNGAKPAGARNTLFSRFTRYSGEQTQKAVAAYVDIARRHGLDPAQMALAFVRRQPFVASTLLGATTMDQLKTNIESLHLELSEDVLAEIEAVHQVYTYPAP [P0A9T4]” here?
**A.** 5.76 ± 0.33 h

**Q.** And the “total protein half-life in vivo” value [2]?
**A.** 5.29 ± 0.14 h

**Q.** What about the “total protein half-life in vivo” value [3] of the same sequence?
**A.** 5.5 ± 0.14 h

**Q.** And the “total protein half-life in vivo” value [4]?
**A.** 4.99 ± 0.068 h

**Q.** What about the “total protein half-life in vivo” value [5] of the same sequence?
**A.** 4.6 ± 0.38 h

**Q.** And the “total protein half-life in vivo” value [6]?
**A.** 3.41 ± 0.077 h

**Q.** What about the “total protein half-life in vivo” value [7] of the same sequence?
**A.** 5.9 ± 0.19 h

**Q.** And the “total protein half-life in vivo” value [8]?
**A.** 10.4 ± 0.85 h

**Q.** And the “total protein half-life in vivo” value [9]?
**A.** 4.88 ± 0.55 h

**Q.** What about the “total protein half-life in vivo” value [10] of the same sequence?
**A.** 8.51 ± 0.57 h

**Q.** What about the “total protein half-life in vivo” value [11] of the same sequence?
**A.** 6.32 ± 0.44 h

**Q.** What about the “total protein half-life in vivo” value [12] of the same sequence?
**A.** 12.8 ± 0.13 h

**Q.** For “MIEFDNLTYLHGKPQGTGLLKANPEDFVVVEDLGFEPDGEGEHILVRILKNGCNTRFVADALAKFLKIHAREVSFAGQKDKHAVTEQWLCARVPGKEMPDLSAFQLEGCQVLEYARHKRKLRLGALKGNAFTLVLREVSNRDDVEQRLIDICVKGVPNYFGAQRFGIGGSNLQGAQRWAQTNTPVRDRNKRSFWLSAARSALFNQIVAERLKKADVNQVVDGDALQLAGRGSWFVATTEELAELQRRVNDKELMITAALPGSGEWGTQREALAFEQAAVAAETELQALLVREKVEAARRAMLLYPQQLSWNWWDDVTVEIRFWLPAGSFATSVVRELINTTGDYAHIAE”, which “total protein half-life in vivo” value [1] is on record?
**A.** 5.52 ± 0.077 h

**Q.** What about the “total protein half-life in vivo” value [2] of the same sequence?
**A.** 5.85 ± 0.93 h

**Q.** What about the “total protein half-life in vivo” value [3] of the same sequence?
**A.** 5.53 ± 0.64 h

**Q.** And the “total protein half-life in vivo” value [4]?
**A.** 6.03 ± 0.79 h

**Q.** What about the “total protein half-life in vivo” value [5] of the same sequence?
**A.** 5.8 ± 0.21 h

**Q.** What about the “total protein half-life in vivo” value [6] of the same sequence?
**A.** 3.11 ± 0.11 h

**Q.** And the “total protein half-life in vivo” value [7]?
**A.** 5.78 ± 0.067 h

**Q.** And the “total protein half-life in vivo” value [8]?
**A.** 12.8 ± 1.1 h

**Q.** What about the “total protein half-life in vivo” value [9] of the same sequence?
**A.** 4.93 ± 0.21 h

**Q.** What about the “total protein half-life in vivo” value [10] of the same sequence?
**A.** 9.75 ± 0.26 h

**Q.** What about the “total protein half-life in vivo” value [11] of the same sequence?
**A.** 5.99 ± 0.14 h

**Q.** And the “total protein half-life in vivo” value [12]?
**A.** 12.6 ± 0.88 h

**Q.** For “MDTKKIFKHIPWVILGIIGAFCLAVVALRRGEHISALWIVVASVSVYLVAYRYYSLYIAQKVMKLDPTRATPAVINNDGLNYVPTNRYVLFGHHFAAIAGAGPLVGPVLAAQMGYLPGTLWLLAGVVLAGAVQDFMVLFISSRRNGASLGEMIKEEMGPVPGTIALFGCFLIMIIILAVLALIVVKALAESPWGVFTVCSTVPIALFMGIYMRFIRPGRVGEVSVIGIVLLVASIYFGGVIAHDPYWGPALTFKDTTITFALIGYAFVSALLPVWLILAPRDYLATFLKIGVIVGLALGIVVLNPELKMPAMTQYIDGTGPLWKGALFPFLFITIACGAVSGFHALISSGTTPKLLANETDARFIGYGAMLMESFVAIMALVAASIIEPGLYFAMNTPPAGLGITMPNLHEMGGENAPIIMAQLKDVTAHAAATVSSWGFVISPEQILQTAKDIGEPSVLNRAGGAPTLAVGIAHVFHKVLPMADMGFWYHFGILFEALFILTALDAGTRSGRFMLQDLLGNFIPFLKKTDSLVAGIIGTAGCVGLWGYLLYQGVVDPLGGVKSLWPLFGISNQMLAAVALVLGTVVLIKMKRTQYIWVTVVPAVWLLICTTWALGLKLFSTNPQMEGFFYMASQYKEKIANGTDLTAQQIANMNHIVVNNYTNAGLSILFLIVVYSIIFYGFKTWLAVRNSDKRTDKETPYVPIPEGGVKISSHH”, which “total protein half-life in vivo” value [1] is on record?
**A.** 5.48 ± 0.6 h

**Q.** And the “total protein half-life in vivo” value [3]?
**A.** 4.43 h

**Q.** What about the “total protein half-life in vivo” value [4] of the same sequence?
**A.** 4.19 ± 0.26 h

**Q.** What about the “total protein half-life in vivo” value [5] of the same sequence?
**A.** 5.39 ± 0.18 h

**Q.** What about the “total protein half-life in vivo” value [6] of the same sequence?
**A.** > 4 h

**Q.** What about the “total protein half-life in vivo” value [7] of the same sequence?
**A.** 4.24 h

**Q.** What about the “total protein half-life in vivo” value [8] of the same sequence?
**A.** 6.86 h

**Q.** And the “total protein half-life in vivo” value [9]?
**A.** 5.42 ± 2.2 h

**Q.** And the “total protein half-life in vivo” value [10]?
**A.** 9.16 ± 0.46 h

**Q.** And the “total protein half-life in vivo” value [11]?
**A.** 5.57 ± 0.48 h

**Q.** And the “total protein half-life in vivo” value [12]?
**A.** 8.62 ± 0.6 h

**Q.** What does the source list for “MKTVTVKDLVIGTGAPKIIVSLMAKDIASVKSEALAYREADFDILEWRVDHYADLSNVESVMAAAKILRETMPEKPLLFTFRSAKEGGEQAISTEAYIALNRAAIDSGLVDMIDLELFTGDDQVKETVAYAHAHDVKVVMSNHDFHKTPEAEEIIARLRKMQSFDADIPKIALMPQSTSDVLTLLAATLEMQEQYADRPIITMSMAKTGVISRLAGEVFGSAATFGAVKKASAPGQISVNDLRTVLTILHQA”?
**A.** total protein half-life in vivo [1]: 3.99 ± 0.25 h; total protein half-life in vivo [2]: 4.15 ± 0.66 h; total protein half-life in vivo [3]: 3.51 ± 0.0088 h; total protein half-life in vivo [4]: 4.3 ± 0.52 h; total protein half-life in vivo [5]: 3.62 ± 0.46 h; total protein half-life in vivo [6]: > 4 h; total protein half-life in vivo [7]: 5.56 ± 1 h; total protein half-life in vivo [8]: 9.4 ± 0.9 h; total protein half-life in vivo [9]: 3.68 ± 0.14 h; total protein half-life in vivo [10]: 5.5 ± 0.19 h; total protein half-life in vivo [11]: 5.38 ± 0.21 h; total protein half-life in vivo [12]: 11 ± 0.46 h

Source: the supplement of paper PMC11246515
